The target in assay [1] is human GPC3 on tumor cell lines (HepG2, Huh-7, NCI-H661, MKN-45, NCI-H23, BxPC-3, NCI-H292) (human, UniProt P51654 25-554). Briefly: cell-based or functional assay.
Assay [2] deals with T1, Recombinant human GPC4/hFc (R&D Systems, cat no 9195-GP) (human, UniProt O75487 19-529, limits assumed).
T1 construct: Bought; not shown: captured with anti-human IgG1
T1 sequence (looked up): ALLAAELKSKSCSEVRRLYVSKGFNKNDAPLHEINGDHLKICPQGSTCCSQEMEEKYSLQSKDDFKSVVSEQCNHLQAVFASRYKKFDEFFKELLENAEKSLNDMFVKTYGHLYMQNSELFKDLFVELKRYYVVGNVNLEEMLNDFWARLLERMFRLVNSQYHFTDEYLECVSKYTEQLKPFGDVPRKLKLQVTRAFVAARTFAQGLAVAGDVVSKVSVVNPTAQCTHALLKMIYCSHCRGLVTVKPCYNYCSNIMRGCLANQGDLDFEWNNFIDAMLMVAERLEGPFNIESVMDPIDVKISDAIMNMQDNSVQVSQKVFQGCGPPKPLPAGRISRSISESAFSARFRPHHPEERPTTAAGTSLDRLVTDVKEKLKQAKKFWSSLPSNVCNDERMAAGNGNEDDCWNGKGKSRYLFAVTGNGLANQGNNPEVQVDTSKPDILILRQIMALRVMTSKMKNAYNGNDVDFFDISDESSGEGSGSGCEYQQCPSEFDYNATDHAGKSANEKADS
The experiment in a line: SPR ProteOn XPR36, GPC4/hFc captured on anti-human IgG1. An excerpt: Data was double referenced by subtracting a reference ligand lane and a blank buffer injection.

The target in assay [3] is T2, cyno serum albumin (in house produced from animal tissue) (cynomolgus).
T2 construct: also called cynomolgus serum albumin
T2 sequence (A2V9Z4 25-608): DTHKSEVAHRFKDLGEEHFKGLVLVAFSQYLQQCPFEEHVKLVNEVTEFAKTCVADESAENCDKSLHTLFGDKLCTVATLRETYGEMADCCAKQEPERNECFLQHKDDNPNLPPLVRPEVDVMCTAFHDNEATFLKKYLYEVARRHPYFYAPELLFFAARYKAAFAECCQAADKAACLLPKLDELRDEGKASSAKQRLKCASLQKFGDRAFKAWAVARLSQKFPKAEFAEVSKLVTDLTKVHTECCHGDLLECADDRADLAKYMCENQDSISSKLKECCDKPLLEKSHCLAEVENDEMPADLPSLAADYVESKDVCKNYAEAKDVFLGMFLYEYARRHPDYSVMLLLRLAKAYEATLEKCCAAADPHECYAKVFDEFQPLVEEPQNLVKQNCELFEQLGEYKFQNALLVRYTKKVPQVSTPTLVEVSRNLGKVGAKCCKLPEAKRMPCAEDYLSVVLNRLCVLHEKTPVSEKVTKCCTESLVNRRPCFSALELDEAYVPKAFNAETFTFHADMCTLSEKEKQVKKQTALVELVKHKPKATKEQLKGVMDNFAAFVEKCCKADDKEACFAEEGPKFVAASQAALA
The experiment in a line: SPR ProteOn XPR36, serum albumin immobilized by amine coupling, 1:1 model. On the procedure:
(§1) Serum albumin proteins were immobilized on a GLC Sensor Chip (Biorad) via amine coupling, using EDC and NHS chemistry (running buffer: HBS-EP+, pH 7.4). Purified ISVDs were injected for 2 minutes (flow rate 45 μL/min) at different concentrations (between 0.24 nM and 500 nM) and dissociation was followed for 900 s. Regeneration was performed by injecting 10 mM Glycine-HCl (pH 1.5) for 47 seconds (flow rate 100 μL/min). Data was double referenced by subtracting a reference ligand lane and a blank buffer injection. Processed sensorgrams were analyzed based on the 1:1 interaction model (Langmuir binding model) using ProteOn Manager 3.1.0 (Version 3.1.0.6) software.

Assay [4] has as its target T3, human serum albumin (Sigma cat no A8763) (human, UniProt P02768 25-609).
T3 construct: also called HSA
The assay is described as above. The procedure:
as §1

The target of assay [5] is mouse serum albumin (DivBioScience cat no IMSA) (mouse, UniProt P07724 25-608). The assay is described as above. The procedure: as §1
mouse serum albumin (DivBioScience cat no IMSA), sequence (P07724 25-608 limits assumed): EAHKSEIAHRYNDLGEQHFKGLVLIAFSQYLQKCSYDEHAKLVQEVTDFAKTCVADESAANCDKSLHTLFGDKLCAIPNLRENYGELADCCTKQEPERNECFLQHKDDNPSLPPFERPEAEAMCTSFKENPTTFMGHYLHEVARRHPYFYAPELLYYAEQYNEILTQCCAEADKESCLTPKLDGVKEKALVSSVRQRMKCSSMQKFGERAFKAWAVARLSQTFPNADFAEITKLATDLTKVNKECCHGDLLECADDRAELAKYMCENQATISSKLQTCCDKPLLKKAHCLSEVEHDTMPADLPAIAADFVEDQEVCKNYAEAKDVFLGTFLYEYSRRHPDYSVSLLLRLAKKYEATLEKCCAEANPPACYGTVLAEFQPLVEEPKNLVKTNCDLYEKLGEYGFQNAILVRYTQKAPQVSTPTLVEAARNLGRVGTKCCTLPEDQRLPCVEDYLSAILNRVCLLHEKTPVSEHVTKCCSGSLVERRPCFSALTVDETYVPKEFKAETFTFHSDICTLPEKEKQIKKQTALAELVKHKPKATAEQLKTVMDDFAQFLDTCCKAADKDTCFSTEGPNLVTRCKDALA
The target in assay [6] is T4, human Glypican-5 (R&D systems, cat no 2607-G5) (human, UniProt P78333 25-553, limits assumed).
T4 construct: Bought; also called GPC5
T4 sequence (looked up): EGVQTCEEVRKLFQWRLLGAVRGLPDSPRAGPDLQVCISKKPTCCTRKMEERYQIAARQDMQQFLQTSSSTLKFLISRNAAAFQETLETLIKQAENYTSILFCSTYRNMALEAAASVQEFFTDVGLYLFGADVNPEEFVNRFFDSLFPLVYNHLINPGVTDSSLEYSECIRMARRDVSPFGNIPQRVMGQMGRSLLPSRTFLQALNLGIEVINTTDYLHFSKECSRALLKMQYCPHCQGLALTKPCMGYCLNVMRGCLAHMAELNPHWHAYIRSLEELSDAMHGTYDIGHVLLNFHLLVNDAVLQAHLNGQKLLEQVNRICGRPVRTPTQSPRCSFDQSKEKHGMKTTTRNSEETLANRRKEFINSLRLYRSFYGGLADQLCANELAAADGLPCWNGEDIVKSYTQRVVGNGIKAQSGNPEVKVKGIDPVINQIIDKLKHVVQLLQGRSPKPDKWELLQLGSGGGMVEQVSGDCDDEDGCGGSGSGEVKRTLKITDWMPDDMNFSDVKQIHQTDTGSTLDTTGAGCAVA
Briefly: ELISA, Glypican-5 coated at 2 ug/mL. On the procedure:
Human GPC1 (R&D systems, cat no 4519-GP), human GPC2 (R&D systems, cat no 2304-GP), human GPC3 (R&D systems, cat no 2119-GP), human Glypican-5 (R&D systems, cat no 2607-G5) and human Glypican-6 (R&D systems, cat no 2845-GP) were directly coated overnight at 4° C. (2 μg/mL, 1×PBS buffer) on a 384-well HB SpectraPlate (PerkinElmer). The following day the plate was washed 6 times (AquaMax microplate washer, Molecular devices) and blocked with 1×PBS+1% Casein for 2 hours at room temperature. […] After 6 final wash steps the es(HS)TMB substrate (SDT) was added and the reaction stopped by addition of 1 M HCl after 10 minutes. The absorbance of the plate was measured at wavelengths 450 and 620 nm on the Clariostar instrument (BMG LABTECH) and the OD₄₅₀-OD₆₂₀ calculated and plotted for data analysis.
Background: An ELISA detects its analyte on a solid surface through an enzyme-linked reagent.

B1: A022600424 (other)
chain: DVQLVESGGGVVQPGGSLRLSCVASGYVHKINFYGWYRQAPGKEREKVAHISIGDQTDYADSAKGRFTISRDESKNTVYLQMNSLRPEDTAAYYCRALSRIWPYDYWGQGTLVTVSSGGGGSEVQLVESGGGVVQPGGSLRLSCAASGFTFSSFAMTWVRRPPGKGLEWVATITNKGVTSYADSVKGRFTISRDNAKNTLYLQMNSLRPEDTALYICANARRTGPRAPTDIGSYRGQGTLVTVSSGGGGSGGGSEVQLVESGGGVVQPGGSLRLSCAASGSIFRSVFSSSTMEWYRQAPGKKRELVARIAPGEGTYYGALYADSVKGRFTISRDNAKNTVYLQMNSLRPEDTALYYCASGVAWGQGTLVTVSSGGGGSGGGSEVQLVESGGGVVQPGGSLRLSCAASGFTFRSFGMSWVRQAPGKGPEWVSSISGSGSDTLYADSVKGRFTISRDNSKNTLYLQMNSLRPEDTALYYCTIGGSLSRSSQGTLVTVSSA
notes: Trispecific tetravalent ISVD (VHH) T-cell engager: anti-TCR, two anti-GPC3 (biparatopic), anti-albumin; also called TCE01-5GS-A022600351-9GS-A022600314-9GS-ALB23002-A
Broadly, the Kd is a measure of binding affinity in units of concentration. Lower therefore signals higher affinity. Consider B1, for which, in assay [1], the “IC50 (M) BxPC-3, xCELLigence human TDC assay” value was over 1e-07 M; the “IC50 (M) HepG2, xCELLigence human TDC assay” value turned out to be 1.15e-10 M; the “IC50 (M) Huh-7, xCELLigence human TDC assay” value amounted to 1.16e-10 M; the “IC50 (M) NCI-H23, xCELLigence human TDC assay” value was over 1e-07 M. The “IC50 (M) NCI-H661, xCELLigence human TDC assay” value in assay [1] is 1.14e-10 M. Moreover, the binding result in assay [2] was “no binding (tested: between 4 nM and 1000 nM)”. Also, in assay [3], binding was put at a Kd of 0.33 nM. For the same molecule, in assay [4], the Kd stood at 0.83 nM. Besides, in assay [5], binding was characterised by a dissociation constant (Kd) of 6.9 nM. The binding result in assay [6] was “no binding”.

For the origin of these results see US20240343823A1 (Ablynx, published 2024).
